One assay deals with T1, Rabbit ANG2 (rabbit, UniProt G1T9B3 19-496).
T1 sequence: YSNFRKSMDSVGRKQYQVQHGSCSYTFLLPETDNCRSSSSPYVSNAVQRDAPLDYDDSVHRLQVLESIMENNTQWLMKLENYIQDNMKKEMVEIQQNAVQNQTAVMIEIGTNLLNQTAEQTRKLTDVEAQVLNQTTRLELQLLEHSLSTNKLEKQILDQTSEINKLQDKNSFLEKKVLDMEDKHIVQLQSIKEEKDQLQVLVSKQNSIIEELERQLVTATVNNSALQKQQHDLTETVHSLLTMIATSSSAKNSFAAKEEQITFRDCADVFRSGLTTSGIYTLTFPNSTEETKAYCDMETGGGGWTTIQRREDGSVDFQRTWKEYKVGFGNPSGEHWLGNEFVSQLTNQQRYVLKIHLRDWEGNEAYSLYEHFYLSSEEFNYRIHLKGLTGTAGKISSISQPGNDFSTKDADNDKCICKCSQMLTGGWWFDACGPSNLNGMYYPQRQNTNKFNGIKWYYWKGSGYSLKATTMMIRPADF
Put plainly: SPR, Biacore T200, antibody captured on Protein G chip, experiment 3. As for the experimental part: (§1) The antibody was diluted to 1 μg/mL and was captured onto channel 2 for 30 s, and channel 1 was the blank control channel. The gradient-diluted Human ANG2, Rhesus ANG2, Rabbit ANG2, Rat ANG2 and Mouse ANG2 were sequentially injected into channels 1 and 2 of the chip, from low to high concentrations (0-32 nM), at a flow rate of 30 μL/min, with one concentration per cycle, and with 180 s association time and 1200 s dissociation time at 25° C. Finally, the chip was regenerated using Glycine pH 1.5 at 30 μL/min for 30 s. The affinity assay was repeated three times.

The next assay concerns the target T2, human Ang2 (human, UniProt O15123 19-496, limits assumed).
T2 construct: also called hAng2; h Ang2
T2 sequence: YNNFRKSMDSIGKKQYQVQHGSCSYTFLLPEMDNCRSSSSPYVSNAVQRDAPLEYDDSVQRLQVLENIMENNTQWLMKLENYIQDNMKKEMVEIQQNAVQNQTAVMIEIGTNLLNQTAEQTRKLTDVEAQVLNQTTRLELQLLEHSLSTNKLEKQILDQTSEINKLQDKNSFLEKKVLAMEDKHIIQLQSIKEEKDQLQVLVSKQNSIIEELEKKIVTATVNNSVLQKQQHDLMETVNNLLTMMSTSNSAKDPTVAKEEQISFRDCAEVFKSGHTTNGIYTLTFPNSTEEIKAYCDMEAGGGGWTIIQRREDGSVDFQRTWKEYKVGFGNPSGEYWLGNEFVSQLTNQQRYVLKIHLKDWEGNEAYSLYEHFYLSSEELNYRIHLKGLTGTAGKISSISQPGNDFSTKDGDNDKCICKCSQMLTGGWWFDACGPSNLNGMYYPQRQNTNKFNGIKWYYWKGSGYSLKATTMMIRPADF
Described as above. As for the experimental part: as §1

Another assay deals with T3, Rhesus ANG2 (rhesus, UniProt F6QXG0 19-496).
T3 sequence: T2 sequence with I279V, F284L, I291V, G410A, A468G
The assay is described as above. As for the experimental part: as §1

For assay [1], the target named is T4, hAng2-Fc protein (Sino Biological, Cat No.: 10691-H02H) (human, UniProt O15123 19-496).
T4 construct: Bought fusion; also called human Ang2-Fc; human Ang2-hFc; not shown: human Fc of the bought fusion protein
T4 sequence: T2 sequence
Put plainly: blocking assay by flow cytometry: antibody titrated against hAng2-Fc (2 ug/ml final); blocked binding to human Tie2 on 293-tie2 cells; anti-human IgG-PE, MFI. As for the experimental part:
The ability of hz81H10.4 and the control antibody Nesvacumab to block the binding of human Ang2-hFc to Tie2 on the cell surface was detected by flow cytometry (FACS).
The antigen hAng2-Fc protein (Sino Biological, Cat No.: 10691-H02H) was diluted to 4 μg/ml, and added to the plate wells at 50 μl/well. Antibodies (hz81H10.4 and control antibody Nesvacumab) prepared as described above were diluted at 2-fold with a total of 12 dilution points starting from the highest concentration of 800 nM, and added to the plate wells at 50 μl/well, and incubated in PBS on ice for 30 min, where the final concentration of the antigen was 2 μg/ml and the highest concentration of antibody was 400 nM. […] The cells were centrifuged at 300 g for 5 min, and after the supernatant was discarded, the cells were resuspended in the antigen-antibody mixture. The cells were incubated on ice for 30 min, and added with PBS at 100 μl/well, centrifuged at 300 g for 5 min, and washed with PBS once. A 100 μl of goat anti-human IgG-PE (Southern Biotech, Cat. No. 2040-09) diluted at 1:200 was added to each well and placed in an ice bath for 20 min. PBS was added at 100 μl/well, and the cells were centrifuged at 300 g for 5 min, and washed once with PBS. The cells were resuspended in 100 μl PBS and the fluorescence signals of the cells were detected by a flow cytometer (BD Biosciences). […]

Assay [2] concerns the target T4, hAng2-Fc protein (Sino Biological, Cat …). Kind of assay: cell-based or functional assay.

Changes are numbered by the printed parent chain.

B1: humanized antibody hz81H10.4 (antibody, human IgG1, kappa, V domains shown)
VH: EVQLVESGGGLVKPGGSLRLSCAASGFTFSNYWMNWVRQAPGKGLEWVAEIRLKSNNYATHYAESVKGRFTISRDVSKNTVYLQMNSLKTEDTAVYYCTDTAPFAYWGQGTLVTVSS
VL: DIQMTQSPSSLSASVGDRVTITCKASQDVGTDVAWYQQKPGKAPKLLIYWASTRHTGVPSRFSGSGSGTDFTLTISSLQPEDFATYYCQQYSSYPLTFGGGTKVEIKR
notes: also called IBI335
Take B1: in the assay with Rabbit ANG2, binding was characterised by a dissociation constant (Kd) of 0.446 nM, the koff was found to be 0.000144 s⁻¹ and the on-rate constant (kon) is 322000 M⁻¹ s⁻¹. For the same molecule, in the assay with human Ang2, the Kd worked out at 0.0357 nM, the off-rate constant (koff) was determined as 1.05e-05 s⁻¹ and the kon came to 293000 M⁻¹ s⁻¹. In the assay with Rhesus ANG2, binding was characterised by a dissociation constant (Kd) of 0.13 nM, the koff turned out to be 4.03e-05 s⁻¹ and the kon was 311000 M⁻¹ s⁻¹. The same molecule yielded an IC50 in assay [1] of 2.3 nM. Besides, the “IC50 (read off the curve)” value in assay [2] was around 5 nM.
